Here are results for 38 sequences from the supplement of paper PMC7877785.

A short description of this series: self-splicing fitness, log relative to wild type (ln ratio); higher = more splicing; Tetrahymena group I intron in knt gene, E. coli kanamycin selection, DiMSum; sequences stand for … in CUCUCU…GGAGGGAAAAGUUAUCAGGCAUGCACCUGGUAGCUAGUCUUUAAACCAAUAGAUUGCAUCGGUUUAAAAGGCAAGACCGUCAAAUUGCGGGAAAGGGGUCAACAGCCGUUCAGUACCAAGUCUCAGGGGAAACUUUGAGAUGGCCUUGCAAAGGGUAUGGUAAUAAGCUGACGGACAUGGUCCUAACCACGCAGCCAAGUCCUAAGUCAACAGAUCUUCUGUUGAUAUGGAUGCAGUUCACAGACUAAAUGUCGGUCGGGGAAGAUGUAUUCUUCUCAUAAGAUAUAGUCGGACCUCUCCUUAAUGGGAGCUAGCGGAUGAAGUGAUGCAACACUGGAGCCGCUGGGAACUAAUUUGUAUGCGAAAGUAUAUUGAUUAGUUUUGGAGUACUCGUGGUCG
In a few lines: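 Colonies from six replicate transformations of E. coli BL21(DE3) were pooled and amplicon-sequenced on an Illumina HiSeq 2500. The library placed an intron with all eight P1ex-region nucleotides randomised inside the knt kanamycin-resistance gene on pET-22b(+), and cells grew overnight at 37°C or 30°C on LB agar with or without 25 μg/mL kanamycin (plus 100 μg/mL carbenicillin, 50 μM IPTG, 0.2% rhamnose). Fitness is the DiMSum error-weighted combination of wild-type-normalised replicate fold changes, kanamycin versus none.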

± gives the uncertainty stated by the source.

Turning to UCCCAGCAAUAUUACGGAGU, the “self-splicing fitness (ln)” value is, setting by setting: (30 °C) -0.413 ± 0.053; (37 °C) -0.504 ± 0.066.

Regarding CCAGAGCAAUAUUACGGGAU, the “self-splicing fitness (ln)” value is -4.38 ± 0.3 (30 °C) and -2.48 ± 0.18 (37 °C). In the case of AACGAGCAAUAUUACGCAUC, the “self-splicing fitness (ln)” value is, setting by setting: (30 °C) -3.65 ± 0.3; (37 °C) -0.331 ± 0.18. As for GCCUAGCAAUAUUACGCUGG, the “self-splicing fitness (ln)” value is, setting by setting: (30 °C) -2.92 ± 0.17; (37 °C) -3.83 ± 0.42. The matching figures for GGGUAGCAAUAUUACGGGUA: -1.55 ± 0.28 and -1.1 ± 0.21. On the same counts, the results for UGCAAGCAAUAUUACGCUCU are -0.965 ± 0.12 and -0.235 ± 0.13. On the same counts, the results for UCAUAGCAAUAUUACGGGCG are -1.12 ± 0.096 and -0.909 ± 0.12. In the case of AGGGAGCAAUAUUACGAGUA, the “self-splicing fitness (ln)” value was -2.7 ± 0.31 (30 °C) and -1.76 ± 0.2 (37 °C). Consider CAGAAGCAAUAUUACGGGGC, for which the “self-splicing fitness (ln)” value is, setting by setting: (30 °C) -3.13 ± 0.17; (37 °C) -2.89 ± 0.27. On the same counts, the results for AAAUAGCAAUAUUACGGCCA are -0.522 ± 0.15 and -0.523 ± 0.18. With ACAGAGCAAUAUUACGCUAC, for the setting “30 °C”, the “self-splicing fitness (ln)” value is -3.21 ± 0.43. Turning to UGACAGCAAUAUUACGGUGG, the “self-splicing fitness (ln)” value reads like this: (30 °C) -1.56 ± 0.064; (37 °C) -0.331 ± 0.082. Regarding AAGUAGCAAUAUUACGCCUG, the “self-splicing fitness (ln)” value was -0.259 ± 0.14 (30 °C) and -0.00805 ± 0.14 (37 °C). For CUAAAGCAAUAUUACGCUGA, the “self-splicing fitness (ln)” value (30 °C) is -3.03 ± 0.18 and the “self-splicing fitness (ln)” value (37 °C) is -2.95 ± 0.29. The matching figures for GGUAAGCAAUAUUACGGGGG: -3.98 ± 0.46 and -3.13 ± 0.2. On to CGGAAGCAAUAUUACGAUGC, for which, under “37 °C”, the “self-splicing fitness (ln)” value is -2.78 ± 0.36. For UUAUAGCAAUAUUACGAGUG, the “self-splicing fitness (ln)” value (30 °C) was -1.06 ± 0.11 and the “self-splicing fitness (ln)” value (37 °C) was -1.32 ± 0.2.

Consider CCCUAGCAAUAUUACGACUU, for which the “self-splicing fitness (ln)” value was -3.27 ± 0.23 (30 °C) and -2.7 ± 0.29 (37 °C). On the same counts, the results for GUACAGCAAUAUUACGCCAU are -3.46 ± 0.23 and -2.32 ± 0.15.

Regarding GAGAAGCAAUAUUACGUACA, the “self-splicing fitness (ln)” value is -0.535 ± 0.066 (30 °C) and -0.692 ± 0.077 (37 °C). The matching figures for AGUGAGCAAUAUUACGUGAG: -3.58 ± 0.31 and -0.839 ± 0.19. On to UCUAAGCAAUAUUACGUACU, for which the “self-splicing fitness (ln)” value (30 °C) is -2.18 ± 0.17 and the “self-splicing fitness (ln)” value (37 °C) is -1.86 ± 0.21.

For GGUCAGCAAUAUUACGAGUA, the “self-splicing fitness (ln)” value (30 °C) was -2.09 ± 0.18 and the “self-splicing fitness (ln)” value (37 °C) was -1.32 ± 0.14. Regarding CUCGAGCAAUAUUACGUGUA, the “self-splicing fitness (ln)” value is -2.89 ± 0.12 (30 °C) and -3.35 ± 0.22 (37 °C). The matching figures for AUAGAGCAAUAUUACGACUG: -2.11 ± 0.13 and -0.786 ± 0.18. In the case of AUAGAGCAAUAUUACGUCUC, the “self-splicing fitness (ln)” value runs as follows: (30 °C) -0.924 ± 0.15; (37 °C) -0.745 ± 0.16.

Turning to GACCAGCAAUAUUACGGGGC, the “self-splicing fitness (ln)” value is -2.78 ± 0.18 (30 °C) and -2.14 ± 0.15 (37 °C). In the case of AACCAGCAAUAUUACGAGCA, the “self-splicing fitness (ln)” value is -1.02 ± 0.092 (30 °C) and -0.505 ± 0.1 (37 °C). For GAUGAGCAAUAUUACGAGGA, the “self-splicing fitness (ln)” value (30 °C) was -2.63 ± 0.17 and the “self-splicing fitness (ln)” value (37 °C) was -2.89 ± 0.15. On to UUGGAGCAAUAUUACGAGGA, for which the “self-splicing fitness (ln)” value runs as follows: (30 °C) -3.13 ± 0.48; (37 °C) -1.56 ± 0.27.

Regarding UUUCAGCAAUAUUACGCGUC, the “self-splicing fitness (ln)” value is -3.56 ± 0.15 (30 °C) and -2.01 ± 0.14 (37 °C). CAAAAGCAAUAUUACGCUAG: the “self-splicing fitness (ln)” value runs as follows: (30 °C) -3.12 ± 0.12; (37 °C) -2.26 ± 0.14. Take CAUGAGCAAUAUUACGGGUG: the “self-splicing fitness (ln)” value is -3.68 ± 0.19 (30 °C) and -2.43 ± 0.13 (37 °C).

On to UAAUAGCAAUAUUACGCCGU, for which the “self-splicing fitness (ln)” value is -2.83 ± 0.38 (30 °C) and -1.97 ± 0.43 (37 °C).

For the sequence UAACAGCAAUAUUACGACAA, the “self-splicing fitness (ln)” value is, setting by setting: (30 °C) -0.503 ± 0.094; (37 °C) 0.136 ± 0.096.

In the case of GCUCAGCAAUAUUACGGAAG, the “self-splicing fitness (ln)” value (30 °C) was -2.23 ± 0.09 and the “self-splicing fitness (ln)” value (37 °C) was -0.736 ± 0.11. On the same counts, the results for AAUCAGCAAUAUUACGGAUG are -0.144 ± 0.066 and 0.153 ± 0.085. Turning to UUCUAGCAAUAUUACGACGC, where the note is “30 °C”, the “self-splicing fitness (ln)” value is -2.76 ± 0.44.
